Publication PMC4372590, “Autonomously Folding Protein Fragments Reveal Differences in the Energy Landscapes of Homologous RNases H” (PLoS ONE, 2015)

Target: T1, T. thermophilus RNase H I_(core) fragment (T. thermophilus)
T1 chain: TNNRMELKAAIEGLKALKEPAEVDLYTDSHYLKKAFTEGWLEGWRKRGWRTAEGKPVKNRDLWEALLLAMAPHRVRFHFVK
Test: AUC; equilibrium analytical ultracentrifugation (Beckman XL-I); 25, 50 and 100 uM samples; 24,500, 30,000 and 37,000 rpm; absorbance at 250 nm; global fit to a monomer-dimer equilibrium (dimer to monomers); room temperature, 20 mM sodium acetate pH 5.5, 50 mM potassium chloride
Settings: both partners purified

B1: T. thermophilus RNase H I_(core) fragment (domain or fragment)
chain: T1 chain
modifications: Printed limits 43-122 use E. coli alignment numbering. The offset is +4 at the N-terminal end (R4=R8, W22=W26, D66=D70) and +5 after the one-residue insertion near 80, so 122=K127. The paper says …
  Kd: ~150 µM
  stoichiometry N: 2
